Results on three molecules are retold here after US20220098305A1 (Hoffmann-La Roche, published 2022).

Where two headings read alike, the source gives them in different places.

In test [1] the target is T1, human ICOS (human, UniProt Q9Y6W8 21-199).
T1 construct: The cell that carries it is named under assay; also called huICOS; CD278
T1 sequence: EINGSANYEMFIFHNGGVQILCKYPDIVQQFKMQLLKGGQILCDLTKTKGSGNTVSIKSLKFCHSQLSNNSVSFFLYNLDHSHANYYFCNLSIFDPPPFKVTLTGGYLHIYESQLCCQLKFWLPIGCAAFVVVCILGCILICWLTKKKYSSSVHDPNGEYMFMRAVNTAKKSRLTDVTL
In words: flow cytometry on CHO cells expressing human ICOS, PE-labelled secondary antibody; y axis printed LOG10(MFI PE).

Test [2] addresses T2, human FAP (human, UniProt Q12884 1-760).
T2 construct: also called hu FAP
In words: flow cytometry on NIH/3T3-huFAP clone 19 cells, geometric MFI.

Test [3] concerns the target T1, human ICOS. The test is described as follows: flow cytometry, CHO cells expressing human ICOS. Here is the method: (§1) Briefly, suspension cells were harvested, counted, checked for viability and re-suspended at 1 million cells per ml in FACS buffer (PBS with 0.1% BSA). […] The staining was fixed for 20 min at 4° C. in the dark, using 75 μl of 1% PFA in FACS buffer per well.
(§2) Fluorescence was analyzed by FACS using a FACS Fortessa (Software FACS Diva). Binding curves and EC₅₀ values were obtained using GraphPadPrism 7.

The target of test [4] is T1, human ICOS. The test is described as follows: flow cytometry, SR cells.
In test [5] the target is T3, cynomolgus ICOS (cynomolgus, UniProt Q9Y6W8 21-195 (human entry)).
T3 chain: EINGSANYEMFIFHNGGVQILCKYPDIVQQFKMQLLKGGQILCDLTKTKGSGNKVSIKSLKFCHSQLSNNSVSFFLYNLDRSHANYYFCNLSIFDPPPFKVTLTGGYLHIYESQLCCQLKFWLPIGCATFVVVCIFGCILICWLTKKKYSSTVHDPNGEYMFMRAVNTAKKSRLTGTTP
In words: flow cytometry on cynomolgus PBMCs activated 48 h with CD3/CD28 beads, CD4+ subset, MFI. As to the method:
as §1
(§3) Briefly, cynomolgus PBMCs were activated for 48 hours using Dynabeads™ Human T-Activator CD3/CD28 (Thermo Fischer #11131D) according to manufacturer instruction and stored in RPMI1640 medium containing 10% FCS and 1% Glutamax (Gibco 35050061) at 37° C., in a humidified incubator until subsequent binding experiment was performed, as described above.

For test [6], the target named is T1, human ICOS. In words: cell-based or functional assay.
The target of test [7] is T2, human FAP. In words: flow cytometry, NIH/3T3-huFAP clone 19 cells.
The target in test [8] is T3, cynomolgus ICOS. In words: flow cytometry on cynomolgus PBMCs activated 48 h with CD3/CD28 beads, CD8+ subset, MFI. Here is the method:
as §1, §3

The target in test [9] is T1, human ICOS. The test is described as follows: flow cytometry, CHO cells expressing human ICOS. The source holds these as a separate data set.
The target of test [10] is T2, human FAP. The test is described as follows: flow cytometry, NIH/3T3-huFAP clone 19 cells. Here is the method: as §1, §2
The source holds these as a separate data set.

In test [11] the target is T3, cynomolgus ICOS. The test is described as follows: flow cytometry, activated cynomolgus PBMCs, CD4+ subset. Here is the method: as §1, §3
The target of test [12] is T3, cynomolgus ICOS. The test is described as follows: flow cytometry, activated cynomolgus PBMCs, CD8+ subset. As to the method:
as §1, §3

The target in test [13] is T1, human ICOS. The test is described as follows: flow cytometry on human PBMCs pre-activated 48 h with PHA-L and IL-2, CD4+ subset, MFI. Here is the method: as §1
Briefly, Peripheral blood mononuclear cells (PBMCs) were prepared by Histopaque (Sigma-Aldrich, Cat No. 10771-500ML Histopaque-1077) density centrifugation of enriched lymphocyte preparations of heparinized blood obtained from a Buffy Coat (“Blutspende Zürich”). The blood was diluted 1:2 with sterile DPBS and layered over Histopaque gradient (Sigma, #H8889). After centrifugation (450×g, 30 minutes, room temperature), the plasma above the PBMC-containing interphase was discarded and PBMCs transferred in a new falcon tube subsequently filled with 50 ml of PBS. The mixture was centrifuged (400×g, 10 minutes, room temperature), the supernatant discarded and the PBMC pellet washed twice with sterile PBS (centrifugation steps 350×g, 10 minutes). The resulting PBMC population was counted automatically (Cedex HiRes) and stored in RPMI1640 medium containing 10% FCS and 1% Glutamax (Gibco 35050061). […] After incubation the PBMCs were used for a subsequent binding experiment, as described above.

Test [14] addresses T2, human FAP. The test is described as follows: flow cytometry, NIH/3T3-huFAP clone 19 cells. This is another data set of the same source.
The target of test [15] is T1, human ICOS. The test is described as follows: flow cytometry on human PBMCs pre-activated 48 h with PHA-L and IL-2, CD4+ subset, MFI. This is another data set of the same source.

B1: Molecule 15, bispecific 2+1 anti-ICOS (009v1)/anti-FAP (4B9) huIgG1 P329GLALA kih (bispecific antibody)
heavy 1: EVRLDETGGGVVQPGRPMELSCVASGFTFSDYWMNWVRQSPEKGLEWVAQIRNKPYNYETYYSDSVKGRFTISRDDSKSRVYLQMNNLRAEDMGIYYCTWPRLRSSDWHFDVWGAGTTVTVSSASTKGPSVFPLAPSSKSTSGGTAALGCLVKDYFPEPVTVSWNSGALTSGVHTFPAVLQSSGLYSLSSVVTVPSSSLGTQTYICNVNHKPSNTKVDKKVEPKSCDKTHTCPPCPAPEAAGGPSVFLFPPKPKDTLMISRTPEVTCVVVDVSHEDPEVKFNWYVDGVEVHNAKTKPREEQYNSTYRVVSVLTVLHQDWLNGKEYKCKVSNKALGAPIEKTISKAKGQPREPQVCTLPPSRDELTKNQVSLSCAVKGFYPSDIAVEWESNGQPENNYKTTPPVLDSDGSFFLVSKLTVDKSRWQQGNVFSCSVMHEALHNHYTQKSLSLSPGGGGGSGGGGSGGGGSGGGGSEIVLTQSPGTLSLSPGERATLSCRASQSVTSSYLAWYQQKPGQAPRLLINVGSRRATGIPDRFSGSGSGTDFTLTISRLEPEDFAVYYCQQGIMLPPTFGQGTKVEIK
heavy 2: not shown
light: AIQMTQSPSSLSASLGGEVTITCKASQDINKNIAWYQHKPGRGPRLLIWYTSTLQTGIPSRFSGSGSGRDYSFTISNLEPEDFATYYCLQFDNLYTFGSGTKLEIRRTVAAPSVFIFPPSDEQLKSGTASVVCLLNNFYPREAKVQWKVDNALQSGNSQESVTEQDSKDSTYSLSSTLTLSKADYEKHKVYACEVTHQGLSSPVTKSFNRGEC
Turning to B1, the “EC50 (read off the curve)” value in the test with human ICOS [1] is roughly 0.5 nM; with human FAP [2] it was roughly 2 nM; with cynomolgus ICOS [5] it was roughly 2 nM; in the test with cynomolgus ICOS [8], roughly 3 nM. Moreover, the EC50 with human ICOS [3] is 1.12 nM; in the test with human ICOS [4], 0.00139 nM; with human FAP [7] it was 0.00198 nM; in the test with human ICOS [9], 0.516 nM; with human FAP [10] it was 2.97 nM; with cynomolgus ICOS [11], 2.09 nM. This molecule also registered an EC50 with cynomolgus ICOS [12] of 3.5 nM. For the same molecule, in the test with human ICOS [6], the “EC50 of activation of Jurkat-NFAT reporter cell line” value was determined as 4.44 nM. In addition, the “Max (Counts/sec), Jurkat-NFAT reporter cell line” value with human ICOS [6] turned out to be 39700 Counts/sec. Further, in the test with human ICOS [9], the “Max (Log10(MFI))” value is 3.06 Log10(MFI).

B2: Molecule 13, bispecific 2+1 anti-ICOS (1167)/anti-FAP (4B9) Crossfab-IgG P329G LALA inverted (bispecific antibody)
heavy 1: EVRLLESGGGLVQPGGSLRLSCAASGFTFNTYAVHWVRQAPGKGLEWVSGIGGSGVRTYYADSVKGRLTISRDNSKNTLYLQMNSLRAEDTAIYFCAKDIYVADFTGYAFDIWGQGTMVTVSSASTKGPSVFPLAPSSKSTSGGTAALGCLVEDYFPEPVTVSWNSGALTSGVHTFPAVLQSSGLYSLSSVVTVPSSSLGTQTYICNVNHKPSNTKVDEKVEPKSCDKTHTCPPCPAPEAAGGPSVFLFPPKPKDTLMISRTPEVTCVVVDVSHEDPEVKFNWYVDGVEVHNAKTKPREEQYNSTYRVVSVLTVLHQDWLNGKEYKCKVSNKALGAPIEKTISKAKGQPREPQVCTLPPSRDELTKNQVSLSCAVKGFYPSDIAVEWESNGQPENNYKTTPPVLDSDGSFFLVSKLTVDKSRWQQGNVFSCSVMHEALHNHYTQKSLSLSP
light 1: DIQMTQSPSSVSASVGDRVTITCRASQGINNFLAWYQQKPGKAPKLLIYDASSLQSGVPSRFAGSGSGTDFTLTISSLQPEDFATYYCQQYNFYPLTFGGGTMVEIKRTVAAPSVFIFPPSDRKLKSGTASVVCLLNNFYPREAKVQWKVDNALQSGNSQESVTEQDSKDSTYSLSSTLTLSKADYEKHKVYACEVTHQGLSSPVTKSFNRGEC
heavy 2: not shown
light 2: EVQLLESGGGLVQPGGSLRLSCAASGFTFSSYAMSWVRQAPGKGLEWVSAIIGSGASTYYADSVKGRFTISRDNSKNTLYLQMNSLRAEDTAVYYCAKGWFGGFNYWGQGTLVTVSSASVAAPSVFIFPPSDEQLKSGTASVVCLLNNFYPREAKVQWKVDNALQSGNSQESVTEQDSKDSTYSLSSTLTLSKADYEKHKVYACEVTHQGLSSPVTKSFNRGEC
With B2, the binding result with human ICOS [13] is “binds”. The EC50 with human FAP [14] worked out at 4.45 nM.

B3: Molecule 41, CEA(A5H1EL1D)-ICOS(1167) 1+1 human IgG1 P329GLALA (bispecific antibody)
heavy 1: EIVLTQSPATLSLSPGERATLSCRASSSVTYIHWYQQKPGQAPRSWIYATSNLASGIPARFSGSGSGTDFTLTISSLEPEDFAVYYCQHWSSKPPTFGQGTKLEIKSSASTKGPSVFPLAPSSKSTSGGTAALGCLVKDYFPEPVTVSWNSGALTSGVHTFPAVLQSSGLYSLSSVVTVPSSSLGTQTYICNVNHKPSNTKVDKKVEPKSCDKTHTCPPCPAPEAAGGPSVFLFPPKPKDTLMISRTPEVTCVVVDVSHEDPEVKFNWYVDGVEVHNAKTKPREEQYNSTYRVVSVLTVLHQDWLNGKEYKCKVSNKALGAPIEKTISKAKGQPREPQVCTLPPSRDELTKNQVSLSCAVKGFYPSDIAVEWESNGQPENNYKTTPPVLDSDGSFFLVSKLTVDKSRWQQGNVFSCSVMHEALHNHYTQKSLSLSP
light 1: EVQLLESGGGLVQPGGSLRLSCAASGFTFTDYYMNWVRQAPGKGLEWLGFIGNKANAYTTEYSASVKGRFTISRDKSKNTLYLQMNSLRAEDTATYYCTRDRGLRFYFDYWGQGTTVTVSSASVAAPSVFIFPPSDEQLKSGTASVVCLLNNFYPREAKVQWKVDNALQSGNSQESVTEQDSKDSTYSLSSTLTLSKADYEKHKVYACEVTHQGLSSPVTKSFNRGEC
heavy 2: not shown
light 2: DIQMTQSPSSVSASVGDRVTITCRASQGINNFLAWYQQKPGKAPKLLIYDASSLQSGVPSRFAGSGSGTDFTLTISSLQPEDFATYYCQQYNFYPLTFGGGTMVEIKRTVAAPSVFIFPPSDRKLKSGTASVVCLLNNFYPREAKVQWKVDNALQSGNSQESVTEQDSKDSTYSLSSTLTLSKADYEKHKVYACEVTHQGLSSPVTKSFNRGEC
In the case of B3, the binding result in the test with human ICOS [15] was “binds”.
